In US20230235000A1:

Target: recombinant mutant SOD1-G93A (His-tag) (human) (UniProt P00441)
Test: cell-based or functional assay

Sequence of recombinant mutant SOD1-G93A (His-tag) (human) (P00441 whole entry, stated change not applied): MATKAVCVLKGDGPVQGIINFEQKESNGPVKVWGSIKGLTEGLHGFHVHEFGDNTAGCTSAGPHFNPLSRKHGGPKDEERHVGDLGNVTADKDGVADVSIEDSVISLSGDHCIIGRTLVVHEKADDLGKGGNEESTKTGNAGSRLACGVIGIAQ

recombinant human FAIM-S (His-tag) (from UniProt Q9NVQ4 1-179)
filter trap density of pre-aggregated SOD1 G93A after 8 µM FAIM for 2.5 hr (fraction of buffer control): 0.5
